In test [1] the target is Thermoproteota archaeon TasR (TaTasR) (Thermoproteota archaeon isolate LB_CRA_1). Nature of the test: cryo-EM structure; TasR tigRNA1 RNP (16 uM) mixed with 60-bp target DNA (8 uM), 29 mM HEPES-KOH pH 7.9, 149 mM KCl, 5 mM MgCl2, 42 C for 1 h; 2D classification of the final particles with a large box and a 300 A circular mask.
In test [2] the target is Thermoproteota archaeon TasR (TaTasR), TIGR-associated protein with an N-terminal RuvC nuclease domain and a Nop domain (Thermoproteota archaeon isolate LB_CRA_1). Kind of test: cryo-EM structure; TasR tigRNA1 RNP (16 uM) mixed with a 60-bp DNA target (8 uM) in 29 mM HEPES-KOH pH 7.9, 149 mM KCl, 5 mM MgCl2; 42°C for 1 hour, then on ice for 3 hours; post-cleavage product complex.

A word on the stoichiometry N: it is the number of molecules, sites or subunits per partner or assembly. Regarding “Thermoproteota archaeon TasR (TaTasR) (enzyme)”, in test [1], the stoichiometry N was found to be 2.
Take “Thermoproteota archaeon TasR (TaTasR), TIGR-associated protein with an N-terminal RuvC nuclease domain and a Nop domain (enzyme)”: in test [2], the stoichiometry N turned out to be 2.

The values are drawn from publication PMC12045711.
